Results as given in patent US20180037644A1 (Pfizer, published 2018).

T1: human IL-33 (mm2) (human, UniProt O95760 112-270)
T1 chain: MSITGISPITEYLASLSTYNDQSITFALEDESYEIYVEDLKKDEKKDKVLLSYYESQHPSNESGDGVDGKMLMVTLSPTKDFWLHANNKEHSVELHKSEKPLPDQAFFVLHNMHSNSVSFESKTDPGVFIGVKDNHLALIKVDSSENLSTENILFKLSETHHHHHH

T2: cynomolgus monkey IL-33 (cys mut) (cynomolgus monkey)
T2 chain: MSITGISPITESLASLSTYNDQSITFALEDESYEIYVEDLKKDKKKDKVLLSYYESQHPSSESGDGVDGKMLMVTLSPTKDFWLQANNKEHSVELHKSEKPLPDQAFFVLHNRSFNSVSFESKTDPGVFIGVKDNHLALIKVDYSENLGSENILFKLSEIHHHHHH


Legend:
human IL-33 (mm2) = biological target: T1, human IL-33 (mm2); assay: cell-based or functional assay
[1] = biological target: T2, cynomolgus monkey IL-33 (cys mut); assay: cell-based or functional assay

Binder	IC50, HEK293 ST2 NFkB (human IL-33 (mm2)) [nM]	IC50, whole blood mm2 (human IL-33 (mm2)) [nM]	IC50, HEK293 ST2 NFkB cyno IL-33 [1] [nM]	IC50, PBMC mm2 (human IL-33 (mm2)) [nM]
IL33-170 (antibody, human IgG1, kappa, V domains shown) VH: EVQLVESGGGLVQPGGSLRLSCAASGFTFSSYWMYWVRQAPGKGLEWVAAITPNGGEDYYPESVKGRFTISRDNAKNSLYLQMNSLRAEDTAVYYCARGHYYYTSYSLGYWGQGTLVTVSS VL: DIQMTQSPSSLSASVGDRVTITCKASQNINKHLDWYQQKPGKAPKLLIYFTNNLQTGVPSRFSGSGSGTDFTLTISSLQPEDFATYYCFQYNNGWTFGGGTKVEIKR	0.176	0.005	0.218	
IL33-169 (antibody, human IgG1, kappa, V domains shown) VH: EVQLVESGGGLVQPGGSLRLSCAASGFTFSSYWMYWVRQAPGKGLEWVAAITPNGGEDYYPDSVKGRFTISRDNAKNSLYLQMNSLRAEDTAVYYCARGHYYYTSYSLGYWGQGTLVTVSS VL: DIQMTQSPSSLSASVGDRVTITCKASQNINKHLDWYQQKPGKAPKLLIYFTNNLQTGVPSRFSGSGSGTDFTLTISSLQPEDFATYYCFQYNNGWTFGGGTKVEIKR	0.071	0.009	0.176	
IL33-154 (antibody, human IgG1, kappa, V domains shown) VH: EVQLVESGGGLVQPGGSLRLSCAASGFTFSSYWMYWVRQAPGKGLEWVASITPNAGEDYYPESVKGRFTISRDNAKNSLYLQMNSLRAEDTAVYYCARGHYYYTSYSLGYWGQGTLVTVSS VL: DIQMTQSPSSLSASVGDRVTITCKASQNINKHLDWYQQKPGKAPKLLIYFTNNLQTGVPSRFSGSGSGTDFTLTISSLQPEDFATYYCFQYNQGWTFGGGTKVEIKR	0.188	0.01	0.133	0.007
IL33-157 (antibody, human IgG1, kappa, V domains shown) VH: EVQLVESGGGLVQPGGSLRLSCAASGFTFSSYWMYWVRQAPGKGLEWVAAITPNAGEDYYPDSVKGRFTISRDNAKNSLYLQMNSLRAEDTAVYYCARGHYYYTSYSLGYWGQGTLVTVSS VL: DIQMTQSPSSLSASVGDRVTITCKASQNINKHLDWYQQKPGKAPKLLIYFTNNLQTGVPSRFSGSGSGTDFTLTISSLQPEDFATYYCFQYNQGWTFGGGTKVEIKR	0.118	0.016	0.161	
IL33-172 (antibody, human IgG1, kappa, V domains shown) VH: EVQLVESGGGLVQPGGSLRLSCAASGFTFSSYWMYWVRQAPGKGLEWVAAITPNAGEDYYPESVKGRFTISRDNAKNSLYLQMNSLRAEDTAVYYCARGHYYYTSYSLGYWGQGTLVTVSS VL: DIQMTQSPSSLSASVGDRVTITCKASQNINKHLDWYQQKPGKAPKLLIYFTNNLQTGVPSRFSGSGSGTDFTLTISSLQPEDFATYYCFQYNNGWTFGGGTKVEIKR	0.201	0.012	0.222	
IL33-175 (antibody, human IgG1, kappa, V domains shown) VH: EVQLVESGGGLVQPGGSLRLSCAASGFTFSSYWMYWVRQAPGKGLEWVAAITPNAGETYYPESVKGRFTISRDNAKNSLYLQMNSLRAEDTAVYYCARGHYYYTSYSLGYWGQGTLVTVSS VL: DIQMTQSPSSLSASVGDRVTITCKASQNINKHLDWYQQKPGKAPKLLIYFTNNLQTGVPSRFSGSGSGTDFTLTISSLQPEDFATYYCFQYNNGWTFGGGTKVEIKR	0.059	0.006	0.086	0.004
IL33-158 (antibody, human IgG1, kappa) heavy: EVQLVESGGGLVQPGGSLRLSCAASGFTFSSYWMYWVRQAPGKGLEWVAAITPNAGEDYYPESVKGRFTISRDNAKNSLYLQMNSLRAEDTAVYYCARGHYYYTSYSLGYWGQGTLVTVSSASTKGPSVFPLAPSSKSTSGGTAALGCLVKDYFPEPVTVSWNSGALTSGVHTFPAVLQSSGLYSLSSVVTVPSSSLGTQTYICNVNHKPSNTKVDKKVEPKSCDKTHTCPPCPAPEAAGAPSVFLFPPKPKDTLMISRTPEVTCVVVDVSHEDPEVKFNWYVDGVEVHNAKTKPREEQYNSTYRVVSVLTVLHQDWLNGKEYKCKVSNKALPAPIEKTISKAKGQPREPQVYTLPPSREEMTKNQVSLTCLVKGFYPSDIAVEWESNGQPENNYKTTPPVLDSDGSFFLYSKLTVDKSRWQQGNVFSCSVMHEALHNHYTQKSLSLSPGK light: DIQMTQSPSSLSASVGDRVTITCKASQNINKHLDWYQQKPGKAPKLLIYFTNNLQTGVPSRFSGSGSGTDFTLTISSLQPEDFATYYCFQYNQGWTFGGGTKVEIKRTVAAPSVFIFPPSDEQLKSGTASVVCLLNNFYPREAKVQWKVDNALQSGNSQESVTEQDSKDSTYSLSSTLTLSKADYEKHKVYACEVTHQGLSSPVTKSFNRGEC	0.131	0.007	0.125	0.004

Further lines, results first:

IC50, HEK293 ST2 NFkB (human IL-33 (mm2)) [nM]	IC50, whole blood mm2 (human IL-33 (mm2)) [nM]	IC50, HEK293 ST2 NFkB cyno IL-33 [1] [nM]	IC50, PBMC mm2 (human IL-33 (mm2)) [nM]	Binder
0.087	0.014	0.122		IL33-153 (antibody, human IgG1, kappa, V domains shown) VH: EVQLVESGGGLVQPGGSLRLSCAASGFTFSSYWMYWVRQAPGKGLEWVASITPNAGEDYYPDSVKGRFTISRDNAKNSLYLQMNSLRAEDTAVYYCARGHYYYTSYSLGYWGQGTLVTVSS VL: DIQMTQSPSSLSASVGDRVTITCKASQNINKHLDWYQQKPGKAPKLLIYFTNNLQTGVPSRFSGSGSGTDFTLTISSLQPEDFATYYCFQYNQGWTFGGGTKVEIKR
0.145	0.012	0.216		IL33-171 (antibody, human IgG1, kappa, V domains shown) VH: EVQLVESGGGLVQPGGSLRLSCAASGFTFSSYWMYWVRQAPGKGLEWVAAITPNAGEDYYPDSVKGRFTISRDNAKNSLYLQMNSLRAEDTAVYYCARGHYYYTSYSLGYWGQGTLVTVSS VL: DIQMTQSPSSLSASVGDRVTITCKASQNINKHLDWYQQKPGKAPKLLIYFTNNLQTGVPSRFSGSGSGTDFTLTISSLQPEDFATYYCFQYNNGWTFGGGTKVEIKR
0.15	0.006	0.282		IL33-187 (antibody, human IgG1, kappa, V domains shown) VH: EVQLVESGGGLVQPGGSLRLSCAASGFTFSSYWMYWVRQAPGKGLEWVAAITPNAGETYYPDSVKGRFTISRDNAKNSLYLQMNSLRAEDTAVYYCARGHYYYTSYSLGYWGQGTLVTVSS VL: DIQMTQSPSSLSASVGDRVTITCKASQNINKHLDWYQQKPGKAPKLLIYFTNNLQTGVPSRFSGSGSGTDFTLTISSLQPEDFATYYCFQYNQGWTFGGGTKVEIKR
0.109	0.014	0.264		IL33-168 (antibody, human IgG1, kappa, V domains shown) VH: EVQLVESGGGLVQPGGSLRLSCAASGFTFSSYWMYWVRQAPGKGLEWVASITPNAGEDYYPESVKGRFTISRDNAKNSLYLQMNSLRAEDTAVYYCARGHYYYTSYSLGYWGQGTLVTVSS VL: DIQMTQSPSSLSASVGDRVTITCKASQNINKHLDWYQQKPGKAPKLLIYFTNNLQTGVPSRFSGSGSGTDFTLTISSLQPEDFATYYCFQYNNGWTFGGGTKVEIKR
0.171	0.025	0.239		IL33-155 (antibody, human IgG1, kappa, V domains shown) VH: EVQLVESGGGLVQPGGSLRLSCAASGFTFSSYWMYWVRQAPGKGLEWVAAITPNGGEDYYPDSVKGRFTISRDNAKNSLYLQMNSLRAEDTAVYYCARGHYYYTSYSLGYWGQGTLVTVSS VL: DIQMTQSPSSLSASVGDRVTITCKASQNINKHLDWYQQKPGKAPKLLIYFTNNLQTGVPSRFSGSGSGTDFTLTISSLQPEDFATYYCFQYNQGWTFGGGTKVEIKR
0.109	0.012	0.144		IL33-186 (antibody, human IgG1, kappa, V domains shown) VH: EVQLVESGGGLVQPGGSLRLSCAASGFTFSSYWMYWVRQAPGKGLEWVAAITPNGGETYYPESVKGRFTISRDNAKNSLYLQMNSLRAEDTAVYYCARGHYYYTSYSLGYWGQGTLVTVSS VL: DIQMTQSPSSLSASVGDRVTITCKASQNINKHLDWYQQKPGKAPKLLIYFTNNLQTGVPSRFSGSGSGTDFTLTISSLQPEDFATYYCFQYNQGWTFGGGTKVEIKR
0.116	0.004	0.087	0.004	IL33-156 (antibody, human IgG1, kappa, V domains shown) VH: EVQLVESGGGLVQPGGSLRLSCAASGFTFSSYWMYWVRQAPGKGLEWVAAITPNGGEDYYPESVKGRFTISRDNAKNSLYLQMNSLRAEDTAVYYCARGHYYYTSYSLGYWGQGTLVTVSS VL: DIQMTQSPSSLSASVGDRVTITCKASQNINKHLDWYQQKPGKAPKLLIYFTNNLQTGVPSRFSGSGSGTDFTLTISSLQPEDFATYYCFQYNQGWTFGGGTKVEIKR
0.049	0.008	0.062	0.001	IL33-167 (antibody, human IgG1, kappa) heavy: EVQLVESGGGLVQPGGSLRLSCAASGFTFSSYWMYWVRQAPGKGLEWVASITPNAGEDYYPDSVKGRFTISRDNAKNSLYLQMNSLRAEDTAVYYCARGHYYYTSYSLGYWGQGTLVTVSSASTKGPSVFPLAPSSKSTSGGTAALGCLVKDYFPEPVTVSWNSGALTSGVHTFPAVLQSSGLYSLSSVVTVPSSSLGTQTYICNVNHKPSNTKVDKKVEPKSCDKTHTCPPCPAPEAAGAPSVFLFPPKPKDTLMISRTPEVTCVVVDVSHEDPEVKFNWYVDGVEVHNAKTKPREEQYNSTYRVVSVLTVLHQDWLNGKEYKCKVSNKALPAPIEKTISKAKGQPREPQVYTLPPSREEMTKNQVSLTCLVKGFYPSDIAVEWESNGQPENNYKTTPPVLDSDGSFFLYSKLTVDKSRWQQGNVFSCSVMHEALHNHYTQKSLSLSPGK light: DIQMTQSPSSLSASVGDRVTITCKASQNINKHLDWYQQKPGKAPKLLIYFTNNLQTGVPSRFSGSGSGTDFTLTISSLQPEDFATYYCFQYNNGWTFGGGTKVEIKRTVAAPSVFIFPPSDEQLKSGTASVVCLLNNFYPREAKVQWKVDNALQSGNSQESVTEQDSKDSTYSLSSTLTLSKADYEKHKVYACEVTHQGLSSPVTKSFNRGEC
